Source: the DeepSol protein solubility set

assay: soluble on expression in E. coli; label from the status in PepcDB or PDB records

Sequence | soluble on expression in E. coli
MKQVKITTTSDLINGGCNACPNVKCTNYLVHVEDETIALETLTVADLVTLLALKEGFRQKLVMEMFEEYTVFERETHQVVFKEEETRILFQSKKQTIQSTLLCKEPQQVFQETQQILHQLFELEPFEFELVEETDE | not soluble
MNFFSLHPNVYATGRPKGLIGMLENVWVSNHTPGEGTLYLISGFSNYNGGVRFYETFTEHINQGGRVIAILGGSTSQRLSSRQVVEELLNRGVEVHIINRKRILHAKLYGTSNNLGESLVVSSGNFTGPGMSQNIEASLLLDNNTTQSMGFSWNDMISEMLNQNWHIHNMTNATDASPGWNLLYDERTTNLTLDETERVTLIVTLGHADTARIQAAPGTTAGQGTQYFWLSKDSYDFFPPLTIRNRRGTKATYSSLINMNYIDINYTDTQCRVTFEAENNFDFRLGTGKLRYTGVAKSNDIAAITRVGDSDYELRIIKQGTPEHSQLDPYAVSFIGNRGKRFGYISNEEFGRIIGVTF | soluble
MGHHHHHHSHMVTSITATANQMPANPPKTVFEFSTEINRTIEKDVMQAVVYSRKTGKQLPDLKKSVSLHLNKVIDNAKKQSDIELEANGVRNFVNYDNNNKPDGWVAEGRVYLKSKNFEALAKVLEQLDSEVAISDIYFSVSPEKAKTLENEMILDVLKQFKHKAEVVQAGLNAKNYVLTDVKLDTPNGNLDQFEVRSFAMMARSVRPASAKEELSLEPGKATLSARASGKVQFE | soluble
MNIDVEFHIRHNYPWNKLPANVRQSLGNSQREYEKQVVLYSIRNQLRYRNNLVKHVKKDERRYYEELLKYSRDHLMLYPYHLSDIVCYVCL | not soluble
MCMAQRLNVNPTRMELSKLKKRLATATRGHKLLKDKQDELMRQFINLIKYNNQLRDEVEKELGSSLKDFVMARAVMSSEFLEEAIAYPKEEIEVEVGNKNIMSVNVPIMNFKRKLEGDEGSIYPYGFMNTSAELDDAISKLYGILPKLLELAEVEKSGQLMADEIEKTRRRVNALEYMTIPQLKETIRYIRMKLDENERSALTRLMKVKSMIEQRGLEHHHHHH | not soluble
MSLNLSRIGLDLAKQVFQVHGVDRHEHVVCRRQLKRAQVRDFFRQLPPCLVAMEACGSAHYWARELRELGHTVRLIAPQFVKPYVKGDKHDAHDAEAICEAASRPSMRYVPVKSAEQQAVQSMHRVRSRLVRARTALCNEVRGLLGEFGLIATRRGRAATMALLETVMATEPAPLPAPMGELLRELKDELQTLEARIARLERQIQAHVRGDARIQRLLAVEGIGPISASAVAASAGDARQFRTGRQFAAWLGLVPRQHSTGGQQRLGNISKRGDTYLRTLLIHGARAVVRCCANKTDARSRWLQGLLQRRPANVVAVALANKNARILWALLSRETCYRPGEGHHHHHH | not soluble
GMTSRSPFESFVWQSEIFNCQSNDIDAFYAQLAEEVNRLGLKKNTLGSVDSFAINLYQSASQRSDLPSLLISSGFHGEEAAGPWGMLHFLRGLQPALFERVNLSLLPLVNPTGFKAGHRFNRFGENPNRGFTLENGKPTPNEHTSLEGKLLLEHAQLLCAASRDGILTCHEDVLMNETYVYSFEPTQTPGRFSLGLRDALGQYFKLAKDGFIDECPVTDGVIFNHFDTSFEAFLVRSGAKLAACSETPGQEDFDRRVQANSAAMGQFIAHCAPIL | soluble
MGSDKIHHHHHHMFTSFAFVTGAFVLFGCDNGRNSDTICKNNPELCEDLHKDSWCRYEKGDLIRQRFILKTTPNPTGKQIYDQLRFLEVYSKCIELASGVQHKVNVQRTNDRLRAFGISVQNLEELQESTKGSQDPYLAYYHWSRLDDAKSLAVLIKAEKEGQISDPELLSKLAIYYLKTDAARAKKLYLDVLGMVDADHLDPDWLLGLATASRTLGDLDGSYLYSRANIALTKQSVNEAQMLALLTGDKTKAAMLDSEAEQLAKAVSSGNFAGSAIEKRLRAEIDTERAKIEPVAPLAQD | not soluble
MGELTDALLGKGALKTRFGSLLGQGDWGGVRVSQVEVRWVIFCLLHWLHVNLPVTEYLALDVLFPLAIVQKHSIL | not soluble
MTNLTFYAKIGISEEEHDSFVKEHQQISVLQGSDWAKIKNQWQNERIGIYKEEKQVASLSLLIKLLPLGRSIIYIPRGPVMDYLDRDLVAFTMKTLKDYGKTKKALFIKYDPAILLKQYALGQEEEEKPLALAAIKNLQEAGVHWTGLTMEIADSIQPRFQANIYTQENLEMQFPKHTRRLIKDAKQRGVKTYRVSQSELHKFSKIVSLTEKRKNISLRNEAYFQKLMTTYGDKAYLHLAKVNIPQKLDQYRQQLILINQDITRTQAHQKKRLKKLEDQKASLERYITEFEGFTDQYPEEVVVAGILSISYGNVMEMLYAGMNDDFKKFYPQYLLYPNVFQDAYQDGIIWANMGGVEGSLDDGLTKFKANFAPTIEEFIGEFNLPVSPLYHIANTMYKIRKQLKNKH | not soluble
MGSDKIHHHHHHMVKLPPLSLYIHIPWCVQKCPYCDFNSHALKGEVPHDDYVQHLLNDLDNDVAYAQGREVKTIFIGGGTPSLLSGPAMQTLLDGVRARLPLAADAEITMEANPGTVEADRFVDYQRAGVNRISIGVQSFSEEKLKRLGRIHGPQEAKRAAKLASGLGLRSFNLDLMHGLPDQSLEEALGDLRQAIELNPPHLSWYQLTIEPNTLFGSRPPVLPDDDALWDIFEQGHQLLTAAGYQQYETSAYAKPGYQCQHNLNYWRFGDYIGIGCGAHGKVTFPDGRILRTTKTRHPRGFMQGRYLESQRDVEATDKPFEFFMNRFRLLEAAPRVEFIAYTGLCEDVIRPQLDEAIAQGYLTECADYWQITEHGKLFLNSLLELFLAE | not soluble
MEKNWYVVHTYSGYENKVKANLEKRVESMGMQDKIFRVVVPEETETDVKNGKRKTTKKKVFPGYVLVEMVMTDDSWYVVRNTPGVTGFVGSSGAGSKPTPLMEEEVKMILKRMGMPLAEVDVDYEVNETVRIKEGPFANFTGKIEAIDPDKHKVKLLVDMFGRETRVELEFSQIEKI | not soluble
MKTIYLHHPITTDEWTDVKKVMALGFFDGVHLGHQAVIKQAKQIAEEKGLQTAVLTFDPHPSVVLSNIRKQVKYLTPLEDKAEKMANLGVDIMYVVRFTTQFSELSPRAFVDNYLVALNVKHVVAGFDYSYGKKGEGKMTELENYANGRFEVTIVDKQTAASDKISSTNIRRAITEGELEEANQLLGYP | not soluble
MKKVIAGLAAASVAGVAVPGMDSAHAQVSNEALKEINGQTQTQTQTQTTVTETKTVETTSELKYTVTADVLNVRSGAGTGHNVISKVKSGQVLQVVGQENGWFKVNVNGQTGYVSGDFVTTGGKTGTTVQQGTGTYTVNVSSLNVRTGPSTSHTVLGSVNKGKTVQVVGEVQDWFKINFNGGTGYVSKDFVTKGGSAVSNETQQPTTNNNTTTVQTGGSYVVNTGALKVRTGPATYNAVIGGVTNGKVLNVTGAENGWYKINHNGRTGYVSADFVKFVKGGVNNVTNNNNVTNNVQQPGKDVQKPTTGGDTSSIAGFARSLNGSPYRTAGTTPAGFDCSGFIHYVLNQTGHKGARQTVAGYWSSKTKTSNPQPGDLVYFQNTYKSGPSHMGVYLGNGQFISAETDATGVRISSVSNSYWSKHLLGYTKAYLEHHHHHH | soluble
GPGSMLTTTDVGGVVRRINVDYKKLKAAYDQNNDSLCLNLVNGLKKQLILLPTFLNPAAASATWLEEVTLTREVLEYAVLVSARLEDLASFELYFNQLSVYYTDIDPTKLEESPLYSLILGLNLVRLLVDDRIAQFHTELEKVPNHIYAPNAYVRFAVLLERYLMEGSYSKLLNSRDQAPSKEYIPIVGMLEKTVRQGVAECIPHSYAKLSFERAQKILMVDSTDAVREIGKQYEWELGKDGASFVFTRREDIAKREVPFQEMLGHHLNFAADLQRIV | soluble
MIVSFMVAMDENRVIGKDNNLPWRLPSELQYVKKTTMGHPLIMGRKNYEAIGRPLPGRRNIIVTRNEGYHVEGCEVAHSVEEVFELCKNEEEIFIFGGAQIYDLFLPYVDKLYITKIHHAFEGDTFFPEMDMTNWKEVFVEKGLTDEKNPYTYYYHVYEKQQLEHHHHHHHH | soluble
MEIINDAELIRSMQRQQHIDAELLTDANVRFEQPLEKNNYVLSEDETPCTRVNYISLDDKTVRKFSFLPSVLMKETAFKTGMCLGSNNLSRLQKAAQQILIVRGYLTSQAIIQPQNMDSGILKLRVSAGEIGDIRYEEKRDGKSAEGSISAFNNKFPLYRNKILNLRDVEQGLENLRRLPSVKTDIQIIPSEEEGKSDLQIKWQQNKPIRFSIGIDDAGGKTTGKYQGNVALSFDNPLGLSDLFYVSYGRGLAHKTDLTDATGTETESGSRSYSVHYSVPVKKWLFSFNHNGHRYHEATEGYSVNYDYNGKQYQSSLAAERMLWRNRLHKTSVGMKLWTRQTYKYIDDAEIEVQRRRSAGWEAELRHRAYLNRWQLDGKLSYKRGTGMRQSMPAPEENGGDILPGTSRMKIITASLDAAAPFILGKQQFFYATAIQAQWNKTPLVAQDKLSIGSRYTVRGFDGEQSLFGERGFYWQNTLTWYFHPNHQFYLGADYGRVSGESAQYVSGKQLMGAVVGFRGGHKVGGMFAYDLFAGKPLHKPKGFQTTNTVYGFNLNYSF | not soluble
MLVDGKLVCVTGAGGYIASWIVKLLLERGYTVRGTVRNPTDPKNNHLRELQGAKERLTLHSADLLDYEALCATIDGCDGVFHTASPMTDDPETMLEPAVNGAKFVIDAAAKAKVKRVVFTSSIGAVYMNPNRDTQAIVDENCWSDLDFCKNTKNWYCYGKMLAEQSAWETAKAKGVDLVVLNPVLVLGPPLQSAINASLVHILKYLTGSAKTYANLTQVYVDVRDVALGHVLVYEAPSASGRYILAETALHRGEVVEILAKFFPEYPLPTKCSDEKNPRAKPYKFTTQKIKDLGLEFKPIKQSLYESVKSLQEKGHLPLPQDSNQNEVIIES | soluble
MRTGKAWVWQLRRAAERTRRPFAGDNSPTFTVEHTHRMYPCHVFCNPLIGTIQMKACSRSERREGSKKMEAAKASKPDVSAVYAVDLSQRPVSQGDAAREKAALLQLARRMHEAPGEMLRRFVELAMELTGGISAGISLLEETEPPPVFRWHHLKGILSPFNGATTPRDFSPCGITLDRSAPTLTIHPERVYDWIPPGLFLPEVLLVPLYIGRTEPLGTLWIVADRIEHFHCGHAATMQELAGFIGIALKMVRSEEELQQALEQQELLTREMGHRLKNLFTILDSMVRISARSTDNKDDLVALLSGRLHALAAAHSLVKPSFSDVQGAASSLAELLSIVLEPHEQPAISGKRRLSLTGPTVLCGEQSVNGLALVFHELATNAAKYGSLCGDLGTVDVVWQIDGDDLGITWREDGGAQATSSSPASKGFGSTLVEATVIRQFGGTLSYDWRSTGLSVHIVIPLCRLAQ | not soluble
MGSDKIHHHHHHMRLYESLLEMCLNKAWEHQTLALENPSVACMVLDKNHEILSLETHKKAKTPHAEVLAAQSALKILRPSLKNDLEKLEDPKTLSDFLKTHHDNAFTDCVFLITLEPCNSYGKTPACSELLEILKPKRVVIATEENEAKKGGLARLQKARIETIICHNLENKAKDLLLPFRVMEQKGRFNLFKLALRMNGDYHHGKITGQKSVIFTHNQRAICDTLIVSGKTIRTDNPLLDARFCDSFYQNKNPNIAILSKRSIDPNSKVFSAPNRLVNTFHDPKDLPLEKGFNFIEGGWELFESLRDKIDALLLHSHASMIGEAFKALALKTPFKGRLLHAQILENEALLWIENS | not soluble
MGSDKIHHHHHHMMNDRDERWDRIAGKLDTLLDRFDRFLDGHIPPPPPDGRLFERHLAFRWRRTGEGGAFLPVEHPHLPDLDDLMGIDLVRDELVRNTGQFVVGYPANNVLLWGERGTGKSTCVKGLLRRFSEEGLRLVEVLRDDLCTLPAIIAPLRKMPQRFILFCDDLSFGEGEGGYRELKVLLEGGIEERPSNILFYATSNRRHLLPERMEDNLGGEIHPEEAVSEKLSLADRFGLNLSFYSFDQDTYLAIVARYAEKFSLPMGGEALRREALQWAIFKGSRSGRSARQFVDDLAGRLRVALPAEK | not soluble
